Substitutions are numbered along the chain they refer to.

For one test, the target named is human IL-2Rαβγ (human) (UniProt P01589). The experiment in a line: cell-based or functional assay.
The next test concerns the target human IL-2Rβγ (human) (UniProt P14784). The test can be described thus: cell-based or functional assay.

Sequence of human IL-2Rαβγ (human) (P01589 22-272, chain 1 of 3): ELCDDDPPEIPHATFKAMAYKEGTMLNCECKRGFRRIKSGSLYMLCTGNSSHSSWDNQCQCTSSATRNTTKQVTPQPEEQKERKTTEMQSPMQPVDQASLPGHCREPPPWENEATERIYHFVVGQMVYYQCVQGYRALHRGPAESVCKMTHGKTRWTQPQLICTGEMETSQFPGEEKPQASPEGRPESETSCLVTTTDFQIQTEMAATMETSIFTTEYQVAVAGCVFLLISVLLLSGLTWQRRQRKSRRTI
Sequence of human IL-2Rαβγ (human) (P14784 27-551, chain 2 of 3, further chain): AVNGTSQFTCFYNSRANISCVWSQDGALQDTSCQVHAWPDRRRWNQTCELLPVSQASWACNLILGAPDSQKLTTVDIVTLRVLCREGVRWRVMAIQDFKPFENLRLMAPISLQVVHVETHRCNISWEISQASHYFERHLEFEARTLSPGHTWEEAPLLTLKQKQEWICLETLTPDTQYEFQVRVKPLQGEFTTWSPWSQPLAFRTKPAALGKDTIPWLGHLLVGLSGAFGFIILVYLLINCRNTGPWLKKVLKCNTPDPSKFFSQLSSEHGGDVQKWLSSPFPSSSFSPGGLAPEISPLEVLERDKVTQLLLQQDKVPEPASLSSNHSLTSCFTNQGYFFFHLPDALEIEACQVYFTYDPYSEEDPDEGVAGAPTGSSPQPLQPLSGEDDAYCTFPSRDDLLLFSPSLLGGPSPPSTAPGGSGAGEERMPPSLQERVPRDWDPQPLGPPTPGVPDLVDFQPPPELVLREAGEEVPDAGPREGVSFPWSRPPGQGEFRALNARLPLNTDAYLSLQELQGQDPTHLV
Sequence of human IL-2Rαβγ (human) (P31785 23-369, chain 3 of 3, further chain): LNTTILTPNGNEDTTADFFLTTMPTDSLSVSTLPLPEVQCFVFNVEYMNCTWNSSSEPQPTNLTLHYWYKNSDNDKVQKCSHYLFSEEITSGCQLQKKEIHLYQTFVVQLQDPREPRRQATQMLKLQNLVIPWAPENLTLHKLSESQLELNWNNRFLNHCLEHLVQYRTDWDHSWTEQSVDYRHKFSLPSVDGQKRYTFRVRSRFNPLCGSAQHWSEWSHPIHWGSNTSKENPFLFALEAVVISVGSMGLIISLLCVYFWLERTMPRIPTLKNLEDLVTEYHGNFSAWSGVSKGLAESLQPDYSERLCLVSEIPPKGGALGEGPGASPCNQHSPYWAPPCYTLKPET
Sequence of human IL-2Rβγ (human) (P14784 27-551, chain 1 of 2): as the sequence (P14784 27-551, chain 2 of 3, further chain) above
Sequence of human IL-2Rβγ (human) (P31785 23-369, chain 2 of 2, further chain): as the sequence (P31785 23-369, chain 3 of 3, further chain) above

B1: 8His-S4(oAzZK)-Li30/F78(oAzZK)-Li30 (ligand)
chain: MHHHHHHHHAPTKSSTKKTQLQLEHLLLDLQMILNGINNYKNPKLTRMLTFKFYMPKKATELKHLQCLEEELKPLEEVLNLAQSKNKHLRPRDLISNINVIVLELKGSETTFMCEYADETATIVEFLNRWITFSQSIISTLT
As to B1, in the test with human IL-2Rαβγ (human), the Standardized EC50 ratio value is > 30 and the Treg proliferation rate at 650 to 6500 pmol/L is > 80%.

B2: 8His-S4(oAzZK)-Li30/I129(oAzZK)-Li30 (ligand)
chain: B1 chain with K87F, I138K
For the molecule B2, in the test with human IL-2Rαβγ (human), the Standardized EC50 ratio value is > 30 and the Treg proliferation rate at 650 to 6500 pmol/L is > 80%. Besides, the NK cell proliferation rate at 65 nmol/L (proliferation medium) with human IL-2Rβγ (human) was < 20%.

B3: 8His-S4(oAzZK)-Y50/I129(oAzZK)-Y50 (ligand)
chain: B1 chain with K87F, I138K
In the case of B3, the Standardized EC50 ratio value with human IL-2Rαβγ (human) was > 30.

The record behind these values is patent US20210060169A1.
